This is an account of results in the RNAGym collection of RNA variant scans (doi:10.1093/molbev/msab373).

To fix the notation:
B1: Azoarcus group I ribozyme (parent)
chain: GUGCCUUGCGCCGGGAAACCACGCAAGGGAUGGUGUCAAAUUCGGCGAAACCUAAGCGCCCGCCCGGGCGUAUGGCAACGCCGAGCCAAGCUUCGGCGCCUGCGCCGAUGAAGGUGUAGAGACUAGACGGCACCCACCUAAGGCAAACGCUAUGGUGAAGGCAUAGUCCAGGGAGUGGCGAAAGUCACACAAACCGG

The variants in this data set derive from B1. Put plainly: reverse-splicing fitness (ratio to wild type); higher = more active; in vitro selection; Mg2+ level not given. In outline:
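An in vitro group I ribozyme library with randomized positions was T7-transcribed and gel-purified. In triplicate, 10 pmol RNA in EPPS pH 7.5 was reacted with 50 pmoles of a 30-nt RNA substrate for 1 h at 37 °C across several added MgCl2 levels (1–48 mM), then stopped with EDTA. Products were reverse transcribed from a substrate-complementary primer, PCR-amplified and sequenced (HiSeq 4000). Fitness is a variant's read proportion after selection over that before, normalised to wild type.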
For C82G A111U A145U U176G, the reverse-splicing fitness is 0.0842. In the case of C82G A111U A145U U176C, the reverse-splicing fitness amounted to 0.246. The result for C82G A111U A145U U176A reads 0.211; that for C82G A111U A145U C150G C169U U176A, 0.00836. Next, C82G A111U A145U C150G C169U U176C: 0.0115; C82G A111U A145U C150G C169U U176G: 0.00664; C82G A111U C169G U176C: 0.0227. The result for C82G A111U C169G U176A reads 0.0157. For C82G A111U C169G U176G, the reverse-splicing fitness came out at 0.00614. In the case of C82G A111U C169A U176A, the reverse-splicing fitness amounted to 0.0152.

Consider C82G A111U C169A U176G, for which the reverse-splicing fitness worked out at 0.00627.

For the variant C82G A111U C169A U176C, the reverse-splicing fitness was 0.0203. Next, C82G A120C A145C C150G C169U U176A: 0.00765; C82G A120C A145C C150G C169U U176C: 0.0116; C82G A120C A145C C150G C169U U176G: 0.00406. Take C82G A111U A145G C169U: the reverse-splicing fitness amounted to 0.0131. With C82G A111U A145G C169A, the reverse-splicing fitness was found to be 0.0087. C82G A111U A145G C169G: the reverse-splicing fitness worked out at 0.00953.

For the variant C82G A111U A145U C150U C169G U176C, the reverse-splicing fitness turned out to be 0.0142.

Take C82G A111U A145U C150U C169G U176A: the reverse-splicing fitness worked out at 0.0132.

As for C82G A111U A145U C150U C169G U176G, the reverse-splicing fitness was determined as 0.00659. Regarding C82G A111U A145G C169U U176A, the reverse-splicing fitness worked out at 0.0134.

Turning to C82G A111U A145G C169U U176G, the reverse-splicing fitness came to 0.00532. The result for C82G A111U A145G C169U U176C reads 0.0155. On to C82G A111U A145U C150G C169A, for which the reverse-splicing fitness came to 0.00951. The result for C82G A111U A145U C150G C169U reads 0.00956; that for C82G A111U A145U C150G C169G, 0.00766; that for C82G A111U C150G C169G U176G, 0.00662. Next, C82G A111U C150G C169G U176C: 0.00587; C82G A111U C150G C169G U176A: 0.0074. Next, C82G A111U C150A C169G U176A: 0.021; C82G A111U C150A C169G U176G: 0.0075; C82G A111U C150A C169G U176C: 0.0229.

As for C82G A111U A145U C150U, the reverse-splicing fitness stood at 0.239.

As for C82G A111U A145U C150A, the reverse-splicing fitness came to 0.0284. Consider C82G A111U A145U C150G, for which the reverse-splicing fitness amounted to 0.0323. Next, C82G A111U C150G C169A U176G: 0.00732; C82G A111U C150G C169A U176C: 0.0132. The result for C82G A111U C150G C169A U176A reads 0.011; that for C82G A111U A145U C150A C169U, 0.00955; that for C82G A111U A145U C150A C169G, 0.00845. C82G A111U A145U C150A C169A: the reverse-splicing fitness stood at 0.0096. As to C82G A120C A145C C150A C169U U176C, the reverse-splicing fitness was 0.0101.

Consider C82G A120C A145C C150A C169U U176G, for which the reverse-splicing fitness worked out at 0.0044.

Take C82G A120C A145C C150A C169U U176A: the reverse-splicing fitness was 0.0134.

C82G A111U A145U C169U U176A: the reverse-splicing fitness was found to be 0.0146. For the variant C82G A111U A145U C169U U176G, the reverse-splicing fitness turned out to be 0.00509. The result for C82G A111U A145U C169U U176C reads 0.0128; that for C82G A111U C150A C169U U176C, 0.0161. Turning to C82G A111U C150A C169U U176G, the reverse-splicing fitness stood at 0.00776.

With C82G A111U C150A C169U U176A, the reverse-splicing fitness stood at 0.0148. The result for C82G A111U A145C C150A U176C reads 0.0187.

Turning to C82G A111U A145C C150A U176G, the reverse-splicing fitness stood at 0.00844. The result for C82G A111U A145C C150A U176A reads 0.0163; that for C82G A111U A145G C150G C169G U176A, 0.0107.

C82G A111U A145G C150G C169G U176C: the reverse-splicing fitness is 0.0129. Next, C82G A111U A145G C150G C169G U176G: 0.0062. The result for C82G A111U A145C C169G reads 0.00826. The result for C82G A111U A145C C169A reads 0.00732; that for C82G A111U A145C C169U, 0.0121. In the case of C82G A111U A145C C150A C169U U176A, the reverse-splicing fitness came out at 0.0163. For the variant C82G A111U A145C C150A C169U U176G, the reverse-splicing fitness turned out to be 0.00599.

Regarding C82G A111U A145C C150A C169U U176C, the reverse-splicing fitness came out at 0.00987. Next, C82G A111U A145C: 0.365; C82G A111U A145U: 0.387; C82G A111U A145G: 0.424.

Take C82G A111U A145G C150U C169G U176C: the reverse-splicing fitness turned out to be 0.0191. Take C82G A111U A145G C150U C169G U176G: the reverse-splicing fitness came out at 0.0058.

As for C82G A111U A145G C150U C169G U176A, the reverse-splicing fitness is 0.0141. The result for C82G A111U C150U C169A reads 0.0106; that for C82G A111U C150U C169G, 0.00914. For the variant C82G A111U C150U C169U, the reverse-splicing fitness worked out at 0.0118. Next, C82G A120C A145C C150A U176G: 0.0054. The result for C82G A120C A145C C150A U176C reads 0.0118; that for C82G A120C A145C C150A U176A, 0.012; that for C82G A111U A145C C150U C169U U176G, 0.00613. Next, C82G A111U A145C C150U C169U U176C: 0.0098; C82G A111U A145C C150U C169U U176A: 0.0136. On to C82G A120C A145C C150U C169U U176A, for which the reverse-splicing fitness was found to be 0.0146. Next, C82G A120C A145C C150U C169U U176G: 0.00439. Next, C82G A120C A145C C150U C169U U176C: 0.00971; C82G A111U A145G C150U C169A: 0.0114; C82G A111U A145G C150U C169U: 0.0119. Next, C82G A111U A145G C150U C169G: 0.00982.
